The values that follow come from paper PMC4755760, “The acidic domain of the endothelial membrane protein GPIHBP1 stabilizes lipoprotein lipase activity by preventing unfolding of its catalytic domain” (eLife, 2016).

Numbering of substitutions follows the chain as printed. Numbers in names are those of the source.

As a reminder, the Kd is the concentration at which binding is half-saturated. A higher Kd goes with lower affinity. What is called koff is the first-order rate constant of dissociation. The low end stands for a long-lived complex, the high end for a short-lived complex. One may read the kon as the second-order rate constant of association. The low end stands for slower complex formation, the high end for faster complex formation.

In experiment [1] the target is Alexa-647–labeled GPIHBP1^34–131/R38G (human) (UniProt Q8IV16). The experiment can be described thus: MST; Monolith NT.115; 5 nM Alexa-647-labeled GPIHBP1, LPL2 titrated 10 pM to 350 nM; 10 mM HEPES (pH 7.4), 150 mM NaCl, 4 mM CaCl2, 0.05% P20, 1.0 mg/ml BSA; 22°C; 1:1 model.
Experiment [2] has as its target bovine LPL homodimer (LPL2) (bovine) (UniProt P11151).
Experiment [3] shares this target. As to the kind of experiment: SPR; Biacore T200, CM4 chip; bovine LPL2 captured on immobilised mAb 5D2, GPIHBP1 as analyte (12.5-200 nM), single-cycle kinetic titration; 20°C; 10 mM HEPES (pH 7.4), 150 mM NaCl, 4 mM CaCl2, 0.05% P20, 0.2 mg/ml BSA; 1:1 model. On the technique in general: In SPR one partner is held on a chip, and binding of the other changes the refractive index at the surface.

Experiment [4] has as its target T1, CTD^313–448 of human LPL (human, UniProt P06858 340-475).
T1 construct: lipoprotein lipase (LPL), human, C-terminal domain, residues 313-448; numbers count on: the mature protein; the printed surface densities (85 RU ~ 5 fmols/mm^2) fit about 17 kDa, that is a CTD without the tag (surmise); also called LPL CTD; C-terminal domain of LPL; source: Drosophila S2 cells, secreted as RS-DIII-ent-CTD, purified (anti-uPAR mAb R24 column)
T1 sequence (looked up): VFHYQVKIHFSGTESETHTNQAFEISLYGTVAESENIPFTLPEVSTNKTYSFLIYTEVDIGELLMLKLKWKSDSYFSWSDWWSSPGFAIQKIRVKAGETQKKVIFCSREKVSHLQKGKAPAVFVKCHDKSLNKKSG
As to the kind of experiment: SPR; Biacore T200, CM4 chip; LPL CTD captured on immobilised mAb 5D2 (~100–200 RU), GPIHBP1 as analyte 8 nM to 4 µM; 20°C; 10 mM HEPES, 150 mM NaCl, 3 mM EDTA (pH 7.4), 0.05% P20; single- and multi-cycle kinetics, global fit to a 1:1 model. The conditions noted are these: both partners purified.

Experiment [5] deals with T2, bovine LPL homodimer (LPL2) (bovine, UniProt P11151 29-478).
T2 sequence (looked up): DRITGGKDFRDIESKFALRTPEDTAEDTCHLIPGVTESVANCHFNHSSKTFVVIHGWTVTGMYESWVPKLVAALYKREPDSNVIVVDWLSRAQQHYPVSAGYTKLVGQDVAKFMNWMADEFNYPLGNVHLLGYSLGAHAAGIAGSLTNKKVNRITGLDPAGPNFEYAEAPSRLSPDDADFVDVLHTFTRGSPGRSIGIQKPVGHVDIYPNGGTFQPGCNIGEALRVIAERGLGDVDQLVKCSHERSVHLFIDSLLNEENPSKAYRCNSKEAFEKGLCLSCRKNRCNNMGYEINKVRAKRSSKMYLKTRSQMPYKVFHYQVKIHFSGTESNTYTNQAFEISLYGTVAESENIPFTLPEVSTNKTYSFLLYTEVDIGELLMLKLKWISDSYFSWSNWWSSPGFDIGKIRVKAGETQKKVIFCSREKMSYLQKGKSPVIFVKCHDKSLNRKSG
The experiment can be described thus: cell-based or functional assay.

Experiment [6] deals with T2, bovine LPL homodimer (LPL2). The experiment can be described thus: SPR; Biacore T200, CM4 chip; bovine LPL2 captured on immobilised mAb 5D2, GPIHBP1 as analyte (12.5-200 nM), single-cycle kinetic titration; 20°C; 10 mM HEPES (pH 7.4), 150 mM NaCl, 4 mM CaCl2, 0.05% P20, 0.2 mg/ml BSA; 1:1 model. The note with it: both partners purified.
For experiment [7] the target is unchanged. As to the kind of experiment: MST; Monolith NT.115; 5 nM Alexa-647-labeled GPIHBP1, LPL2 titrated 10 pM to 350 nM; 10 mM HEPES (pH 7.4), 150 mM NaCl, 4 mM CaCl2, 0.05% P20, 1.0 mg/ml BSA; 22°C; 1:1 model. The note with it: both partners purified.

“bovine LPL homodimer (LPL2) (from UniProt P11151 29-478) (enzyme)” displayed a Kd in experiment [1] of 147 nM.

As for “GPIHBP1^34–131/R38G (from UniProt Q8IV16 54-151) (domain or fragment)”, in experiment [2], the Loss of esterase activity (%) of LPL after 45 min at 25°C; relative to LPL without ligand (100%) is 34.7%; the Loss of triolein hydrolase activity (%) of LPL after 45 min at 25°C; relative to LPL without ligand (100%) was 51.5%; the Unfolding of NTD in LPL (%) after 45 min at 25°C, by pulse-labeling HDX-MS, equimolar ligand; relative to LPL without ligand (100%) worked out at 79.2%. For the same molecule, in experiment [3], the dissociation constant Kd turned out to be 91 nM, the koff came to 0.019 s⁻¹ and the kon stood at 190000 M⁻¹ s⁻¹.

Consider GPIHBP1^1–33 (peptide), for which, in experiment [2], the Loss of esterase activity (%) of LPL after 45 min at 25°C, peptide in 5-fold molar excess; relative to LPL without ligand (100%) came to 9.8%; the Loss of triolein hydrolase activity (%) of LPL after 45 min at 25°C, peptide in 5-fold molar excess; relative to LPL without ligand (100%) amounted to 4.2%; the Unfolding of NTD in LPL (%) after 45 min at 25°C, by pulse-labeling HDX-MS, equimolar ligand; relative to LPL without ligand (100%) came out at 43%.

B1: GPIHBP1^34–131/R38G (domain or fragment, human, UniProt Q8IV16 54-151, looked up)
chain: LPGGGSRVLLRCYTCKSLPRDERCNLTQNCSHGQTCTTLIAHGNTESGLLTTHSTWCTDSCQPITKTVEGTQVTMTCCQSSLCNVPPWQSSRVQDPTG
notes: numbers count on: the mature protein; Monomeric by SEC; also called truncated GPIHBP1 lacking the acidic domain; isolated LU domain; source: Drosophila S2 cells; not shown: uPAR domain III (DIII), N-terminal, cleaved
As to B1, in experiment [4], the Kd stood at 1410 ± 760 nM, the koff is 0.1 ± 0.01 s⁻¹ and the association rate constant (kon) turned out to be 100000 M⁻¹ s⁻¹.

B2: GPIHBP1^1–131/R38G (domain or fragment, human, UniProt Q8IV16 21-151, looked up)
chain: QTQQEEEEEDEDHGPDDYDEEDEDEVEEEETNRLPGGGSRVLLRCYTCKSLPRDERCNLTQNCSHGQTCTTLIAHGNTESGLLTTHSTWCTDSCQPITKTVEGTQVTMTCCQSSLCNVPPWQSSRVQDPTG
notes: numbers count on: the mature protein; Monomeric by SEC; Carries a single N-linked glycan; also called soluble human GPIHBP1; not shown: uPAR domain III (DIII), N-terminal, cleaved
In experiment [4], B2 yielded an equilibrium dissociation constant (Kd) of 120 ± 40 nM, a koff of 0.12 ± 0.04 s⁻¹ and a kon of 1.04e+06 M⁻¹ s⁻¹. In experiment [5], the “Loss of esterase activity (%) of LPL after 45 min at 25°C; relative to LPL without ligand (100%)” value is 11.4%; the “Loss of triolein hydrolase activity (%) of LPL after 45 min at 25°C; relative to LPL without ligand (100%)” value was determined as 28.7%; the “Unfolding of NTD in LPL (%) after 45 min at 25°C, by pulse-labeling HDX-MS, equimolar ligand; relative to LPL without ligand (100%)” value came to 32.6%. In experiment [6], the equilibrium dissociation constant (Kd) was 25 ± 7 nM, the dissociation rate constant (koff) amounted to 0.023 ± 0.006 s⁻¹ and the on-rate constant (kon) was 990000 M⁻¹ s⁻¹.

B3: GPIHBP1^1–131/R38G N-gly (domain or fragment, human, UniProt Q8IV16 21-151, looked up)
chain: B2 chain
modifications: the single N-linked glycan removed with N-glycanase
notes: numbers count on: the mature protein; As m1 after removal of the N-glycan; source: Drosophila S2 cells, purified, then incubated overnight at 37°C with N-glycanase under native conditions; not shown: uPAR domain III (DIII), N-terminal, cleaved
In experiment [4], B3 gave a Kd of 150 nM, a koff of 0.16 s⁻¹ and an on-rate constant (kon) of 1.06e+06 M⁻¹ s⁻¹.

B4: Alexa-647–labeled GPIHBP1^1–131/R38G (domain or fragment, human, UniProt Q8IV16 21-151, looked up)
chain: B2 chain
modifications: Alexa Flour-647 (NHS ester), average 1.3 flurophore/protein; conditions favor modification of the N-terminal α-amino group
notes: numbers count on: the mature protein; m1 with a fluorophore; source: Drosophila S2 cells, purified, labeled with Alexa Flour-647 NHS ester, desalted (PD-10); not shown: uPAR domain III (DIII), N-terminal, cleaved
B4 showed a dissociation constant Kd in experiment [7] of 5.7 nM.

B5: GPIHBP1^1–131 (domain or fragment, human, UniProt Q8IV16 21-151, looked up)
chain: B2 chain with G38R
notes: numbers count on: the mature protein; not shown: uPAR domain III (DIII), N-terminal, cleaved
Consider B5, for which, in experiment [4], binding was characterised by a dissociation constant (Kd) of 290 ± 130 nM, the off-rate constant (koff) was found to be 0.22 ± 0.07 s⁻¹ and the kon was found to be 1.12e+06 M⁻¹ s⁻¹. In experiment [6], this molecule yielded a dissociation constant Kd of 38 ± 29 nM, an off-rate (koff) of 0.02 ± 0.007 s⁻¹ and an on-rate constant (kon) of 650000 M⁻¹ s⁻¹.
